B1: RHOBTB3 (parent)
chain: STTEGIQLAKELGATYLELHSLDD

Variants of: B1
Assay: protein stability index of a GFP-peptide fusion (GPS, HEK-293T) (PSI 1-6); higher = more stable
Settings: c terminus: a fixed tail appended
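Also: lentivirally expressed fusions sorted by FACS into six bins by GFP to DsRed ratio, PSI derived from sequencing read proportions per bin multiplied by bin number.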

Protein stability index, by site and new letter:
E18: P 3.97, T 3.71, K 3.2, Q 3.39, S 3.86, W 1.61, F 2, V 2.38
S1: T 3.56, Q 4.18, N 3.19, R 3.64, A 3.21, I 2.44, C 2.86, D 4.37, V 3.06, P 3.63
L19: E 4.76, M 4.38, P 5.37, G 5.31, A 4.63, Y 4.82, Q 5.55, C 4.71, W 4.68
A14: Y 3.7, P 4.28, L 3.15, N 3.59, Q 3.28
E11: Y 2.88, I 2.39, M 3.19
Y16: Q 4.33, D 3.29, R 4.18, G 4.83, K 4.81
L8: F 4.24, S 4.58, M 4.11, Y 4.97, G 5.04
H20: P 4.93, C 2.68, D 4.95, S 3.44, Q 3.13, I 1.76, V 1.65, A 2.73
E4: K 4.24, H 3.37, N 3.58, M 2.27, Y 2.27, D 3.44
G5: L 3.64, S 3.56, F 2.25, A 3.23, C 3.02, Y 2.91, P 4.09, Q 3.94
D24: R 2.26, Y 2.7, E 3.35, H 2.44, S 2.02
L17: D 5.55, R 3.94, H 4.8, V 4.15, S 4.61
T3: I 2.73, L 2.37, H 2.49, E 4.19, N 2.9, C 2.22
T15: Y 3.49, C 3.59, G 3.97, M 3.27, S 3.71, R 3.83, F 2.59, L 2.1, Q 4.33
S21: D 4.49, R 2.86, V 2.93, C 3.14, P 4.06
G13: D 4.31, K 3.16, Y 1.42, M 1.66, N 2.64, R 1.66, P 4.81
T2: E 4.33, N 4.11, Y 2.37, H 3.68, V 2.81, G 2.54, A 3.58, R 3.5, K 3.5, S 3.71, Q 3.85
A9: T 4.21, F 2.28, P 4.49, D 4.64, W 2.64, G 4.34
I6: V 4.05, T 1.68, K 3.94, Q 4.54, M 3.01, P 4.31, N 4.39, Y 3.22, F 2.59
K10: W 1.5, R 2.99, T 1.84
L12: D 5.62, P 4.42, C 3.96, Y 4.81, E 4.99, T 4.88, A 5, F 3.89
Q7: C 3.49, D 4.68, L 2.95, T 3.68, I 3.37, V 3.54, R 2.19, K 3.96, W 2.5
D23: Y 2.42, A 2.43, L 2.21, W 2.92, S 3, K 3.14, H 3.71, Q 3.55, T 3.75
L22: F 3.47, H 4.62, G 3.38, K 4.68, M 4.32, Y 4.41, W 3.45, I 3.7

From the supplement of paper PMC10567573
